Experimental data from paper PMC3873856 (Biochemistry, 2013).
Values joined by “and” are separate entries in the source; they are usually repeats but may differ in a detail not shown here. Identical values can stand only once. Bridges are numbered along the chain shown (N, C = ends). Roman numbers before positions name the chains, in order. Where no end group is shown, it is not given here.

T1: Nrp1-b1b2 (residue 274 to 586) (UniProt O14786 274-586)
T1 sequence (looked up): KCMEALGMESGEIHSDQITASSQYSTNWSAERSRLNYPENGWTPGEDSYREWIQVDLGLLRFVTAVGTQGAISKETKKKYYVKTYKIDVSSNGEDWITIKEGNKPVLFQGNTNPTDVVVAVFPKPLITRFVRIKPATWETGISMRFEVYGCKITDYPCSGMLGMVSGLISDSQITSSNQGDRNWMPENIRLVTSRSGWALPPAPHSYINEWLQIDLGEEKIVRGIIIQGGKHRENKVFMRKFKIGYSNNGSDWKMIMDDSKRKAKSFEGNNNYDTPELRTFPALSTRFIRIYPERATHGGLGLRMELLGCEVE

T2: Nrp1 (Nrp1-b1b2) / VEGF-A binding (Homo sapiens, UniProt O14786)
T2 sequence (O14786 274-586): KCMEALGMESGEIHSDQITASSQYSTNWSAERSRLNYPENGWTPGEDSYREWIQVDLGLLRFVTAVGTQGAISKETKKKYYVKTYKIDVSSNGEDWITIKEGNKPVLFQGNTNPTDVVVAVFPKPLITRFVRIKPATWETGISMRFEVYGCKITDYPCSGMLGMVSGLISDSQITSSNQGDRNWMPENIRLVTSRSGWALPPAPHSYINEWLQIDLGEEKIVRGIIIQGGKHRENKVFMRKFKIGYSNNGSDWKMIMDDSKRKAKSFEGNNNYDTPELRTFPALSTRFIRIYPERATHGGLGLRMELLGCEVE

B1: Sema3A.3, furin processed variant of the Sema3A C-terminal domain (peptide)
chain: NTMDEFCEQVWKRDRKQRRQRPGHTPGNSNKWKHLQENKKGRNRRTHEFERAPR

Molecular target: T1, Nrp1-b1b2 (residue 274 to 586)
Test: plate-based competition assay with alkaline phosphatase fused ligand
Conditions: not given

In order of falling IC50:
1. GLIHQYCQGYWRHVPPSPREAPGAPRSPEPDQKKPRNRA (also: homodimer, intermolecular disulfide Cys7-Cys7) [C-furSema R779A]  4500 nM
2. GLIHQYSQGYWRHVPPSPREAPGAPRSPEPDQKKPRNRR [monomeric C-furSema^Mon]  1300 nM
3. NTMDEFCEQVWKRDRKQR [Sema3A.1, shortest furin processed variant of the Sema3A C-terminal domain]  1100 nM
4. CQGYWRHVPPSPREAPGAPRSPEPDQKKPRNRR [ΔN-C-furSema]  111 nM
5. NTMDEFCEQVWKRDRKQRRQRPGHTPGNSNKWKHLQENKKGRNRR [Sema3A.2, furin processed variant of the Sema3A C-terminal domain]  45 nM
6. B1  27 nM

With GLIHQYCQGYWRHVPPSPREAPGAPRSPEPDQKKPRNRR (also: homodimer) [furin-processed C-terminal domain of Sema3F (C-furSema), homodimeric] the IC50 was 25 nM and 24 nM.

Molecular target: T2, Nrp1 (Nrp1-b1b2) / VEGF-A binding
Test: Plate-based inhibition of AP-VEGF-A binding to Nrp1
Conditions: comparison of IC50 values, in words

For “I: CQGYWRHVPPSPREAPGAPRSPEPDQKKPRNRR-OH / II: CQGYWRHVPPSPREAPGAPRSPEPDQKKPRNRR-OH (disulfide I:1-II:1) [ΔN-C-furSema]”, the “potency relative to C-furSema in inhibiting VEGF-A binding to Nrp1” value was “approximately five-fold less potent”.
